Assay [1] has as its target human neonatal Fc receptor (human) (UniProt P55899). Description: SPR.
Assay [2] has as its target adalimumab (human). Description: BLI.
The target of assay [3] is adalimumab (human). Description: BLI. This is another data set of the same source.

pKd: −log10 of the molar value. Read-outs that look alike come from different tables or passages of the source.

Chain of UniProt P55899 (P55899 24-297): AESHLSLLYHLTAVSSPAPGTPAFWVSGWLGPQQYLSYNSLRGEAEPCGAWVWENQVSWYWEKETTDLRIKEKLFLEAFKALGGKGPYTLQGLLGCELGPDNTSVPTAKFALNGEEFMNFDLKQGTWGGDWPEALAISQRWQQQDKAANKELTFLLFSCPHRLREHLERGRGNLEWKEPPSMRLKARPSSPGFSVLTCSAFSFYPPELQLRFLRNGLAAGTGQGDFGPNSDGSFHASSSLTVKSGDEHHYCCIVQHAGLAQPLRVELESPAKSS

Take adalimumab (antibody): in assay [1], the KD1 was 8.77 nM, the KD2 was 467 nM, the ka1 was found to be 906000 M⁻¹ s⁻¹ and the ka2 worked out at 362000 M⁻¹ s⁻¹. In assay [1], this substance yielded a kd1 of 0.0073 s⁻¹ and a kd2 of 0.141 s⁻¹.

For the substance “recombinant human tumor necrosis factor (from UniProt P01375 77-233) (ligand)”, the off-rate constant (koff) (commonly the rate constant with which the complex falls apart) with adalimumab (human) [2] came out at 4.81e-05 s⁻¹. For the same substance, in the assay with adalimumab (human) [3], the negative logarithm of the Kd (pKd) (commonly the negative decadic logarithm of the Kd, by convention in mol/L) was 11.34; the koff came to 5.5e-06 s⁻¹; the on-rate (kon) (as a rule, the second-order rate constant of association) was 1.32e+06 M⁻¹ s⁻¹.
